No end group written: not given here.

The record followed here is US20050136061A1 (published 2005).

The assay addresses HIV-1 IIIB transmembrane glycoprotein gp41 (HIV-1 IIIB). Kind of assay: cell-based or functional assay.

As for WQEWEQKITALLEQAQIQQEKNEYELQKLDKWASLWEWF (not fully specified) [T-1249 peptide], the “IC50, inhibition of HIV-1 IIIB infection of MT4-Luc cells (HIV LTR-luciferase reporter assay)” value is approximately 3.3 nM.
